Legend:
[1] = biological target: T1, human TPBG (trophoblast glycoprotein), full length, cell surface expressed (human, UniProt Q13641 32-420)
T1 sequence: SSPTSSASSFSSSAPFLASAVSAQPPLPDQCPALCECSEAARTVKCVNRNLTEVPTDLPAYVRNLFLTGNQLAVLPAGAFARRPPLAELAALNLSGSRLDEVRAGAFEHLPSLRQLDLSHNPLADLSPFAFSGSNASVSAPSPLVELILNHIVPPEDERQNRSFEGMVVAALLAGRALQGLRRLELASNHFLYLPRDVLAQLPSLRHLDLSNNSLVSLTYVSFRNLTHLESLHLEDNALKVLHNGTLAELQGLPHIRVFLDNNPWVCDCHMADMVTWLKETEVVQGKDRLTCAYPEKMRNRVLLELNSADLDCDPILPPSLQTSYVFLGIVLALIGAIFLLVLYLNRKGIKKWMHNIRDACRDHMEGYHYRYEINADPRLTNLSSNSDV

[2] = biological target: T1, human TPBG (trophoblast glycoprotein), …; test: cell-based or functional assay

Row | Binder | EC50 [1] [nM] | EC50 cytotoxicity, sortase-coupled Fab-PE, MCF7 [2] [nM] | X-fold higher potency compared to TPBG(H8)PE, MCF7 [2] [fold]
1 | 097 Fab coupled to PE24 (LR8M) via sortase coupling (Fab) heavy: EVQLLESGGGLAQPGGSLRLSCAASGFTFNNDAMTWVRQAPGKGLEWVSAISGSGGSTYYADSVKGRFTISRDNSKNTLYLQMNSLRAEDTAVYYCAKGGSWGDWYYYFYPMDVWGQGTTVTVSSASTKGPSVFPLAPSSKSTSGGTAALGCLVKDYFPEPVTVSWNSGALTSGVHTFPAVLQSSGLYSLSSVVTVPSSSLGTQTYICNVNHKPSNTKVDKKVEPKSCGGGSLPETGGGRHRQPRGWEQLYPTGAEFLGDGGAVSFSTRGTQNWTVERLLQAHRQLEEGGYVFVGYHGTFLEAAQSIVFGGVRARSQDLDAIWAGFYIAGDPALAYGYAQDQEPDAAGRIRNGALLRVYVPRSSLPGFYATSLTLAAPEAAGEVERLIGHPLPLRLDAITGPEESGGRLETILGWPLAERTVVIPSAIPTDPRNVGGDLDPSSIPDSEAAISALPDYASQPGKPPREDL light: not shown | 0.63 | 0.054 | 1.1
2 | H8 Fab coupled to PE24 (LR8M) via sortase coupling (Fab, V domains shown) VH: EVQLQQSGPDLVKPGASVKISCKASGYSFTGYYMHWVKQSHGKSLEWIGRINPNNGVTLYNQKFKDKAILTVDKSSTTAYMELRSLTSEDSAVYYCARSTMITNYVMDYWGQVTSVTVSS VL: SIVMTQTPTFLLVSAGDRVTITCKASQSVSNDVAWYQQKPGQSPTLLISYTSSRYAGVPDRFIGSGYGTDFTFTISTLQAEDLAVYFCQQDYNSPPTFGGGTKLEIKR | 1.56 | 0.059 | –
3 | 091 Fab coupled to PE24 (LR8M) via sortase coupling (Fab) heavy: EVHLLESGGGLVHPGGSLRLSCAASGFTFRSDAMHWVRQAPGKGLEWVSGVSGSGGSPYYADSVKGRFTISRDDSKTTLYLQMNSLRAEDTAVYYCATGGSIAGSYYYYPMDVWGQGTTVTVSSASTKGPSVFPLAPSSKSTSGGTAALGCLVKDYFPEPVTVSWNSGALTSGVHTFPAVLQSSGLYSLSSVVTVPSSSLGTQTYICNVNHKPSNTKVDKKVEPKSCGGGSLPETGGGRHRQPRGWEQLYPTGAEFLGDGGAVSFSTRGTQNWTVERLLQAHRQLEEGGYVFVGYHGTFLEAAQSIVFGGVRARSQDLDAIWAGFYIAGDPALAYGYAQDQEPDAAGRIRNGALLRVYVPRSSLPGFYATSLTLAAPEAAGEVERLIGHPLPLRLDAITGPEESGGRLETILGWPLAERTVVIPSAIPTDPRNVGGDLDPSSIPDSEAAISALPDYASQPGKPPREDL light: not shown | 0.61 | 0.033 | 1.8
4 | 051 Fab coupled to PE24 (LR8M) via sortase coupling (Fab) heavy: EVQLLESGGGLLQPGGSLRLSCAASGFTFSIYWMTWVRQAPGKGLEWVSAISGSGGSTYYADSVKGRFTISRDNSKNTLYLQMNSLRAEDTAVYYCAKDYYSNVYWGQGTLVTVSSASTKGPSVFPLAPSSKSTSGGTAALGCLVKDYFPEPVTVSWNSGALTSGVHTFPAVLQSSGLYSLSSVVTVPSSSLGTQTYICNVNHKPSNTKVDKKVEPKSCGGGSLPETGGGRHRQPRGWEQLYPTGAEFLGDGGAVSFSTRGTQNWTVERLLQAHRQLEEGGYVFVGYHGTFLEAAQSIVFGGVRARSQDLDAIWAGFYIAGDPALAYGYAQDQEPDAAGRIRNGALLRVYVPRSSLPGFYATSLTLAAPEAAGEVERLIGHPLPLRLDAITGPEESGGRLETILGWPLAERTVVIPSAIPTDPRNVGGDLDPSSIPDSEAAISALPDYASQPGKPPREDL light: DIQMTQSPSSVSASVGDRVTITCRASQGIYSWLAWYQQKPGKAPKLLIYAASSLQSGVPSRFSGSGSGTDFTLTISSLQPEDFATYYCQQSDSPPYTFGQGTKLEIKRTVAAPSVFIFPPSDEQLKSGTASVVCLLNNFYPREAKVQWKVDNALQSGNSQESVTEQDSKDSTYSLSSTLTLSKADYEKHKVYACEVTHQGLSSPVTKSFNRGEC | 0.67 | 0.036 | 1.7

— US20180311371A1 (Hoffmann-La Roche, published 2018)
